The supplement of paper PMC10567573

B1: SMOC2 (parent)
chain: PALETQPQGDEEDIASRYPTLWTE
B2: CCND1 (parent)
chain: IRRAYPDANLLNDRVLRAMLKAEE
B3: TSN (parent)
chain: FVELQGFLAAEQDIREEIRKVVQS

Variants of: B1
Assay: protein stability index of a GFP-peptide fusion (GPS, HEK-293T) (PSI 1-6); higher = more stable
Settings: c terminus: a fixed tail appended
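Also: lentivirally expressed fusions sorted by FACS into six bins by GFP to DsRed ratio, PSI derived from sequencing read proportions per bin multiplied by bin number.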

Protein stability index of substitutions, site by site:
E24: C 4.22; I 3.97; N 3.73; F 4.17; T 4.65; R 4.81; G 5.22; W 4.17; L 4.19; Q 4.82; K 5.17; H 4.47; P 5.1; Y 4.41; V 4.22; D 4.68; A 4.67; M 3.94; S 4.78
T23: M 5.08; H 5.75; S 5.28; W 5.08; I 4.28; K 4.58; V 2.74; Q 4.43; R 5.13; L 5.29; Y 5.37; P 5.28; N 5.66

Variants of: B2
Assay: as above
Settings: c terminus: a fixed tail appended

Protein stability index of substitutions, site by site:
A4: W 3.03; T 2.12; L 1.84; H 2.4; E 2.04; Q 2.37; R 2.37; N 2.59; M 2.58; P 3.12; K 2.3; C 2.17; V 1.79; F 1.4; I 2.4
R3: E 3.72; I 1.13; V 1.54; Q 3.62; H 2.92; G 3.44; D 4.23; F 1.87; T 3.17; A 2.86; P 2.71; W 1.99; N 2.66; M 2.35; Y 2.05; K 2.84
R2: A 3.82; K 2.87; D 4.09; M 3.37; N 2.84; T 2.92; E 3.49; C 2.25; I 2.4; Y 1.6; W 3.61; L 2.39; F 1.94; Q 3.03; P 3.68; H 2.08
I1: C 2.41; P 3.34; L 2.5; K 2.99; H 3.25; T 2.27; A 2.77; N 3.69; W 2.32; Q 3.45; S 3.94; V 2.69; R 2.21

Variants of: B3
Assay: as above
Settings: c terminus: a fixed tail appended

Protein stability index of substitutions, site by site:
D13: A 3.62; N 3.27; F 1.85; M 2.91; H 2.78; S 1.52
E16: T 1.14; D 3.34; H 1.34; S 1.18; L 1.76; R 2.3
Q5: W 1; A 1.58; V 2.38; D 1.23; K 2.12; C 5.07
I18: Y 2.13; L 2.87; F 2.06; A 1.82; D 1.62; S 1.75; H 1.24; R 1.68; P 3.43
F1: C 3.1; L 4.18; A 3.48; I 2.08; K 3.83; P 2.9; T 3.62; G 3.24; R 3.12; H 3.96; W 1.14; N 3.67; Y 3.21
A9: M 1.78; L 1.57; W 3.23; Q 1.63; E 2.47; I 2.48; R 1.93; N 2.25; G 1.62; K 1.73; P 1.02
E11: C 1.92; D 1.39; Y 2.09; W 3.13; I 1.86; L 2.02; N 2.16; A 1.05; R 2.52; F 1.29; K 2.13
Q23: C 3.33; D 3.47; F 2.61; L 1.92; W 1.65; T 2.38; I 1.25; M 1.98
V22: W 2.27; C 3; H 2.65; E 2.23; P 3.2; L 1.97; K 1.62; G 1.55; F 2.67; Q 4.66; R 1.7; I 3.83; M 1.42
K20: I 3.91; L 1.83; R 1.99; Y 2.21; S 1.96; A 2.27; M 1.89; H 1.94; G 1.7; C 2.75; P 2.1; T 1.89
V21: Q 2.13; A 1.29; I 3.69; N 2.47; D 2.52; Y 1.68; W 2.27; M 1.21; G 1.69; K 1.79; E 1.55; T 3.32; P 2.51; S 1.45
R15: S 1.98; G 1.41; L 2.35; N 1.03; D 1.26; W 1.39; H 1.91; C 1.82; Y 1.76; E 2.06; M 1.83
F7: C 2.68; N 2.71; V 2.04; M 2.01; A 1.64; K 1.31; T 2; E 3.11; D 2.84; Y 1.33; G 2.33; H 2.14; R 2.04
A10: D 1.35; C 1.04; K 1.62; H 1.74; I 2.04; E 4.05; R 1.8; F 2.15; M 2.2
V2: F 1.75; K 3.83; L 1.67; Y 2.31; N 3.06; R 3.34; G 1.75; A 2.37; W 1.33; Q 1.17; D 4.19; M 2.3; T 1.68; P 2.47; I 1.51; S 1.65; E 3.95
G6: E 2.06; T 2.32; M 2.16; S 1.85; F 1.68; C 1.56; I 2.19; N 2.42
L8: Y 1.8; Q 1.37; P 2.99; E 2.44; K 1.72; S 1.47; G 1.07; D 2.68; C 1.83; R 3.58; M 2.07; N 2.31
E3: R 1.25; S 2.08; M 2.97; F 1.6; H 2.9; Y 1.64; N 2.45; P 1.53; K 1.4; T 2.59; Q 2.4; C 2.23; W 1.75
I14: A 2.73; Y 1.23; W 2.36; T 2.01; R 1.64; E 3.21; D 1.4
R19: I 1.78; Y 1.46; T 2.25; V 1.97; C 2.32; N 2.38; G 3; S 3.87; K 2.67; A 2.44; D 1.6; Q 3.16
S24: K 1.42; G 2.37; L 3.92; Q 1.97; E 1.72
Q12: M 2.17; K 2.24; C 1.92; R 3.99; V 2.6; A 3.3; E 3.62; P 1.39
E17: Y 1.93; R 1.48; M 2.49; L 2.69; G 2.42; H 2.3; V 2.91
L4: W 1.21; D 2.22; N 1.43; T 3.35; M 2.15; Q 1.35; H 1.52; R 1.97; E 2.17; I 1.79; K 1.8
